Results: a protein production outcome set (Wang et al. 2014)

Experiment: label from the status in PepcDB records

Sequence | protein production
MKRKAVNFHPQVDMSIGDKYLLKEFIDEGSFGYVWKAVNLENRQTVALKIPKDQERGDNTLSEGKEFIGSHHPNVISIYWMGRVDGVFLIEMEYFNGHKLSDELCETGFKSPRTFEEIYNLFFQILDGVEYIHSKHICHGDIKPQNILIDGKIAKITDFGTSKLIEDLFIKTIDGGGTWAYMAPEVAGSNRRYLNSDIYSLGVLLYKFLTGRTPHETANQLINNIPYPKPREINNNIPESVERIIMKLLKRNPDERYQNISEIKRDLEEALRSEDRNIISYNERAEVKYEDTDWIERVIRYYKNNEFDKAELLLKTEYENGNKSADVLYHIAYTYFQQGRYFESMDVIKDIDITQVEDIRQEALEDNLLYLKGKLFFELKKYEEAVKVYEKLVSRNPDDLNYRYKLACAYGLNDEQEKSIEILEDINKKTPGMLYIVKKLGHAYDQIKDFKKARAYFNYAIRLDPSDTIIRNRLEEYSKYFNYLGY | failed
MNPAPFLLLGGALAWLTLYLLGGRKVKAGEFILGAIIFPLSITLQNIVQQLPLLWVGIRPDITSLGTSEIIAISIWMGLIAGIFQELFKYIFVRGKSAGYAFSVGLGFAISEVIFITALVTLSAKGGTPSQPFATNLLSLAERYLVVLFHVGTAIMLTQGTRKVLIEVIGLHALIDSMAAYYQLMSAVYIKTNKIYMIPRILLLTEIVLAVITVIVLIASLPKISQVKEEKEEVIW | failed
PKIAGIDLGTTYSSIGIYHAVTGETIILPDDLGKKSVPSVVAFLPNGTVLIGTRATEQQEHNPKRTIYDAKRFIGRNFEKNNKDFLSDQKRYPFKINLDSEGKAFFEIPLDSGTKNVYPEEIGSLIIGYLKSAAAKHLGVTLGQVVISCPAEFNEKQRNFTAKAAEIAEMEVRRVISEPTAAALAYGLHKKQGVENVVVVDLGGGTLDVSVLWLQGGVFVTQAMAGNNRLGGQDFNDRVQKHLISKIAEKFGKTIDNKEDIQQIRMEVEKGKIRLTNVPSTTISLNLKTVGKWNYELTRDEFETLNGDLLKAIELPITAALADANLDTADVDEIVLVGGSTQVPAVRKIVGRFFKKSANYGVDPELAVVTGASVQAGVIGGGWPLQVAAMELPAKRRKRHFFTEEQKENEKDRTISEL | not failed
MASPDGSGSESFRTRRRRNRARFALAAVLTFILVAVGVLALVFYELRPVSLKIAVGPGGGDDLKLVQALAQSFARDRAAVRLVPLVTGGATPSIEAFRDHKADLAVTRADLDLPADAQAVAVLRKNVVVLWAPSSAGKGKKSIKTITDLAGRRVGVIGRTPANVKLFDIILAESGVAPDKVQKEQFATGQLAEMARDPSLDAFLAVGPLDSKITGEAIAATAKARGEPRFLPVDVGDAIAKKYPIYDSEEIPGSIFSTQPARPEDKVDTVSVNHLIVARQSLSSVTVTKLTRQIFAARQQIAREMPLAGKIEAPDTEKDAALPAHRGAAAFIDGTDRTFMERNSDYIWGLVLLLSGLGSAGAWFRSYLTRDEREAGAKMRDRALAMVAKARKAETLEALDALQHEIDKILRDTLDCYDDGAIEDLEPFSLVLEQFHHAVMDRRAALSASGPGLIPVDPATLPAAHA | failed
MASGKQFMKKPIVWTIAGVDSSGLAGVHADMETFSRLNVRACSVITAVTAQNAHSIIAVEEISRDQVAAQCRALELNLKPDAIKIGMLCSTPICEEIAYFLKGYEGFVVLDPIITSSSGTNLFFPDLQQHKNNLIQLFPYITIITPNRIEAEIILNRSIYSYQDIINAASDLLSLGAKQVLLKGGHVKDNSFSQDYWTDGKESFWIANRRFPETNYRGTGCVLSSALTACLALGYSIKDAIVIAKMYVNRGIRQSIEIDKDASQLYHDGWPEDEADLPYLSPTPFIKPVPSFKKYSMGFYPIVDSSHWLEMLLPLGIKCIQLRIKEASQERLEEEIKRSVHLANQYNAALFINDHWELAIHYGAAGVHLGQEDLEKADVDRINRSGLFLGISTHCYYEVARAHALNPSYVACGPIYETTSKIMPFQAQGIARLERWRKTLRYPLVAIGGITLKNLSDVLKTKIDGVSVISAITKASAPLVAAKQFLTQMNESHNE | failed
MKTVRCSILGFGAIGQGVAEVLLMKKEYLESIGLEIIVVAVVDSRGATINPEGVDLADCLARKRTTGTVAIEKITGVEVIKSIDHDLVIETTPTNIVTGGAGLQNMFAAFEIGKDVITSNKGPLTLKYRELMEAAKVAGSSFRFEATVGGSMPIINLANEVLAGNRLKSIKGILNGTCNYILTRMLEERASYKDILAESMELGIAETDPTYDVDGIDTACKLVILANAIFGLNATYKDVEVTGITKITPEALEMAYERGHVIKLIGEVSRERIHVAPRLVPINHPLDVRGTLNVASIDTELAGEITVTGKGAGPVETASAILSDLIAIYGNQLEHHHHHH | not failed
MFSGKRLKKRRITLGYSQSELADKLHINRSSYFNWENEKTKPNQSNLKQLAILLDVPETYFESEYKIVNTYLQLSLQNQEKVEKYAEELLQTQKVHEKIVPLFAVEVLSEIQLSAGPGEGLYDEFETETVYSEDEYTGFDIATWISGNSMEPVYKDGEVALIRSTGFDHDGAVYALNWNGSLYIKKLYREEDGFRMVSINPDVAERFIPFEDEIRIVGKIVGHFMPVIGGLEHHHHHH | not failed
MRMVAHRFLRPQEAHMQVLVRDNNVDQALRILKKKLQREGVFREMRLREAFEKPSIKKAREKAEAIGRQRKLARKQMQREGLLPTKPRKDKLEHHHHHH | failed
MVGQREPAPVEEVKPAPEQPAEPQQPVPTVPSVPTIPQQPGPIEHEDQTAPPAPHIRHYDWNGAMQPMVSKMLGADGVTAGSVLLVDSVNNRTNGSLNAAEATETLRNALANNGKFTLVSAQQLSMAKQQLGLSPQDSLGTRSKAIGIARNVGAHYVLYSSASGNVNAPTLQMQLMLVQTGEIIWSGKGAVSQQLEHHHHHH | not failed
MTQLFPGPIVRTPGLAELDARARDIFRRVVESYLETGEPVGSRTISKGGVALSPASIRNTMQDLAQLGLLDAPHTSAGRMPTHAGLRMFVDGFLEVGDVAEQEKRAIEARLAVKGRSFEEALAEASSILSGLAGGAGIVVTPVREGGVKHVEFVPLGGGQVLAVMVFEDGQVENRLMRQAPGVTPSALQEASNFLNARLRGRTLTEARTEMGGELDAARRQLNETAARLVEDGLAAWSGGEGDARSLIVRGQANLLADARAREDIDRVRQLFDDLSRRAQLIGLLDDVRDAEGVRIYIGAETRLFSLSGSSVIAAPYMTGRQKVLGAIGVIGPARLNYARVIPLVDYTARVLGRMMDG | failed
MRVRNRKGATELLEANPQYVVLNPLEAKAKWRDLFGNDNPIHVEVGSGKGAFVSGMAKQNPDINYIGIDIQKSVLSYALDKVLEVGVPNIKLLWVDGSDLTDYFEDGEIDRLYLNFSDPWPKKRHEKRRLTYKTFLDTFKRILPENGEIHFKTDNRGLFEYSLVSFSQYGMKLNGVWLDLHASDFEGNVMTEYEQKFSNKGQVIYRVEAEF | not failed
MQNIRVVLARPNHPGNIGSAARAMKTMGLSRLYLVEPKVFPSEEANALASGAVDLLENATVVGSLREALSDVTVACALTSRRRELTTPLSTPRQTTPELIARARDGEQVALVFGNETFGLSIEEVEQCNRLVTIPGNPDYFSLNLAMAVQVMTYELFSHTGVDVEYLRAEGEAATQSEVDGMCGHLEQAMDEIGYFQRRNSERLMRRMRTMFHRAGMLREEIDILRGFYKQVQRTASGRSGDAD | failed
MKLEIGYNHPFEIRKERYESDHVCNFSVLYISDLHLTVFSKDICTRLSKCIQELNPTIIILGGDYIDCRNGWDYLSTFFKFLSARKNVFSIAGNHDYFYGIDEIKKLIESNNIHWLENQSAVVNIQEYNILLTGNNETQSSIPADFNILCLHKPVSLDAFKIPYHIAFAGHLHGCQCVFWQNENGLYPGRFFYTFNFLRRQVKNCLYLISKGLGDTLPIRFNCKKDIIFVEIKNNSNKLEHHHHHH | failed
LKKLPAEIYLIDEQAKTSVQDFEYASYYHSSATVNTGTFNECRSADLVLFFQEEMSNESFSNEDNLALIKEKVKKMMATGFQGIVLVATAESNIVASLIKHFSGLPANQIITPG | failed
LENCVFCKIIKRELPSTIYYEDERVIAIKDINPAAPVHVLIIPKEHIANVKEINESNAQILIDIHKAANKVAEDLGIAEKGYRLITNCGVAAGQTVFHLHYHLLGGVDMGPKIL | not failed
